Measured values published in article PMC5759053 (Glia, 2017).

Molecular target: aquaporin-4 (AQP4) M1 isoform, expressed in HEK 293 cells (UniProt P55088-1 1-323)
Experiment: co-IP

Chain of aquaporin-4 (AQP4) M1 isoform, expressed in HEK 293 cells (P55088 whole entry, canonical isoform): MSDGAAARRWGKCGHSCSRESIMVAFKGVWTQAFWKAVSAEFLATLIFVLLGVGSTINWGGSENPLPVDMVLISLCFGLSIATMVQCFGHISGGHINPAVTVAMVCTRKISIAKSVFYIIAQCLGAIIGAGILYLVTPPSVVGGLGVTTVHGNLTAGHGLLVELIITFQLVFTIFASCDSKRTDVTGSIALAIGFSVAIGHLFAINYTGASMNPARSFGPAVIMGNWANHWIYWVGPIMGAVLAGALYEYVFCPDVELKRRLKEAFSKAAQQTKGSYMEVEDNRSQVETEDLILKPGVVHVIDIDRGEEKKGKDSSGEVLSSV

B1: TRPM4, expressed in HEK 293 cells (natural protein)
chain: not shown
fold TRPM4 co-precipitated with AQP4 in SUR1+ cells against SUR1- cells: 4 fold
